According to article PMC12266122 (2025):

B1: FLAG-TSC22D2 (full length, wild type) [human] / HA-NRBP1 WT [human] (parent complex)
chain 1: MSKMPAKKKSCFQITSVTTAQVATSITEDTESLDDPDESRTEDVSSEIFDVSRATDYGPEEVCERSSSEETLNNVGDAETPGTVSPNLLLDGQLAAAAAAPANGGGVVSARSVSGALASTLAAAATSAPAPGAPGGPQLAGSSAGPVTAAPSQPPTTCSSRFRVIKLDHGSGEPYRRGRWTCMEYYERDSDSSVLTRSGDCIRHSSTFDQTAERDSGLGATGGSVVVVVASMQGAHGPESGTDSSLTAVSQLPPSEKMSQPTPAQPQSFSVGQPQPPPPPVGGAVAQSSAPLPPFPGAATGPQPMMAAAQPSQPQGAGPGGQTLPPTNVTLAQPAMSLPPQPGPAVGAPAAQQPQQFAYPQPQIPPGHLLPVQPSGQSEYLQQHVAGLQPPSPAQPSSTGAAASPATAATLPVGTGQNASSVGAQLMGASSQPSEAMAPRTGPAQGGQVAPCQPTGVPPATVGGVVQPCLGPAGAGQPQSVPPPQMGGSGPLSAVPGGPHAVVPGVPNVPAAVPAPSVPSVSTTSVTMPNVPAPLAQSQQLSSHTPVSRSSSIIQHVGLPLAPGTHSAPTSLPQSDLSQFQTQTQPLVGQVDDTRRKSEPLPQPPLSLIAENKPVVKPPVADSLANPLQLTPMNSLATSVFSIAIPVDGDEDRNPSTAFYQAFHLNTLKESKSLWDSASGGGVVAIDNKIEQAMDLVKSHLMYAVREEVEVLKEQIKELVERNSLLERENALLKSLSSNDQLSQLPTQQANPGSTSQQQAVIAQPPQPTQPPQQPNVSSA
chain 2: not shown

Variants of: B1
Experiment: co-immunoprecipitation (HA-IP) with immunoblot densitometry; HEK293 cells stably expressing HA-NRBP1, 36 hours after transfection; N = 2, n = 2; read off a plot

response	Variant
~0.09	chain 1 R179E
~0.22	chain 1 R179A
~0.76	chain 1 R161A
~0.02	chain 1 R161E, chain 1 F162A, chain 1 R179E
~0.35	chain 1 R161A, chain 1 F162A
